Source: paper PMC7642682, “SPOR Proteins Are Required for Functionality of Class A Penicillin-Binding Proteins in Escherichia coli” (mBio, 2020)

T1: penicillin-binding protein 1A (PBP1A) (Escherichia coli, UniProt P02918 1-850)
T1 sequence (looked up): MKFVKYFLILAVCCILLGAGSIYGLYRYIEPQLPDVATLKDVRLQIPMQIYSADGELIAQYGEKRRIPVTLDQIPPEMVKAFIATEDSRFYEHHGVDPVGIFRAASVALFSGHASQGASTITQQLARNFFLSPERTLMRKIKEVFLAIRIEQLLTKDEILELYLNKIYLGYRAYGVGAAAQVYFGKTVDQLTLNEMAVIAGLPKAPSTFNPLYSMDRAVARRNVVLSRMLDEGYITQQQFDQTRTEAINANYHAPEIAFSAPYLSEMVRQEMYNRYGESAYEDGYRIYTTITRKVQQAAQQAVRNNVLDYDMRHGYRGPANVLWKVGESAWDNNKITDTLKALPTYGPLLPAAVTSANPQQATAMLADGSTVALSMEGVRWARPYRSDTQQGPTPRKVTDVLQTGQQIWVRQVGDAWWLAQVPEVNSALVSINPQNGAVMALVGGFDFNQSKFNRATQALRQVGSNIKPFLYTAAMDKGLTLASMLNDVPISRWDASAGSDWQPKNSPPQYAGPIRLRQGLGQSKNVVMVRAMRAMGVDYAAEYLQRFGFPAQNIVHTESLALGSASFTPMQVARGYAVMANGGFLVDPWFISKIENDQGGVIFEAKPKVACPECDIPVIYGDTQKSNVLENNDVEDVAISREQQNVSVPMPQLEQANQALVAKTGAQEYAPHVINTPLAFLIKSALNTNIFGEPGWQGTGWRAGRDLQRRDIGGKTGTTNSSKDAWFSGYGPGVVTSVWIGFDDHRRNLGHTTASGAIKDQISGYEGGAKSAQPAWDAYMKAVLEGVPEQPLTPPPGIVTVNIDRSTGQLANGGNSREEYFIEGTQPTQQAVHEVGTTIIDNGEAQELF

T2: penicillin-binding protein 1B (PBP1B) (Escherichia coli, UniProt P02919 1-844)
T2 sequence (looked up): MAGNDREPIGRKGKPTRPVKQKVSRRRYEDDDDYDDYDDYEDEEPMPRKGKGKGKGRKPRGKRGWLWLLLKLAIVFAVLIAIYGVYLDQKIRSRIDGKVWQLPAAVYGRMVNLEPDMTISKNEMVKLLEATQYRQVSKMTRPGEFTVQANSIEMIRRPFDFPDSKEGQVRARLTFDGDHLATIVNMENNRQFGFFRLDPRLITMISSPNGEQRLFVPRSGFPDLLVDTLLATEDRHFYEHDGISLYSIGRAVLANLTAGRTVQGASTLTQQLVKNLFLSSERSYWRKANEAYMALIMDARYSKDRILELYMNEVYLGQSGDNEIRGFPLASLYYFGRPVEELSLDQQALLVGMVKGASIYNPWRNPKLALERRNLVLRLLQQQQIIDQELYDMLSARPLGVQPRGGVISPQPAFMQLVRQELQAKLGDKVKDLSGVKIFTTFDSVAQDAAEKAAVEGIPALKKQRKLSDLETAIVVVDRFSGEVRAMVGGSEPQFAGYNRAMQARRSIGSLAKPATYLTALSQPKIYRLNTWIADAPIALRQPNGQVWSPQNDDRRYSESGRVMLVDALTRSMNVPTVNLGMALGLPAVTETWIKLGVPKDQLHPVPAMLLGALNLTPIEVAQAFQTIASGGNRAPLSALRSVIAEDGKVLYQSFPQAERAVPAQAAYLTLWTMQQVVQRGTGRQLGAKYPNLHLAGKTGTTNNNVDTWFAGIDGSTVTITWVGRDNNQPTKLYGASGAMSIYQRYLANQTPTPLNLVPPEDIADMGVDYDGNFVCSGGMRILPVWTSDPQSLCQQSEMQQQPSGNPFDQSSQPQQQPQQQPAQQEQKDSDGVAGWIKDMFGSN

B1: His-DedD (natural protein, Escherichia coli, UniProt P09549 1-220, looked up)
chain: MASKFQNRLVGTIVLVALGVIVLPGLLDGQKKHYQDEFAAIPLVPKAGDRDEPDMMPAATQALPTQPPEGAAEEVRAGDAAAPSLDPATIAANNTEFEPEPAPVAPPKPKPVEPPKPKVEAPPAPKPEPKPVVEEKAAPTGKAYVVQLGALKNADKVNEIVGKLRGAGYRVYTSPSTPVQGKITRILVGPDASKDKLKGSLGELKQLSGLSGVVMGYTPN
B2: His-DamX (natural protein, Escherichia coli, UniProt P11557 1-428, looked up)
chain: MDEFKPEDELKPDPSDRRTGRSRQSSERSERTERGEPQINFDDIELDDTDDRRPTRAQKERNEEPEIEEEIDESEDETVDEERVERRPRKRKKAASKPASRQYMMMGVGILVLLLLIIGIGSALKAPSTTSSDQTASGEKSIDLAGNATDQANGVQPAPGTTSAENTQQDVSLPPISSTPTQGQTPVATDGQQRVEVQGDLNNALTQPQNQQQLNNVAVNSTLPTEPATVAPVRNGNASRDTAKTQTAERPSTTRPARQQAVIEPKKPQATVKTEPKPVAQTPKRTEPAAPVASTKAPAATSTPAPKETATTAPVQTASPAQTTATPAAGAKTAGNVGSLKSAPSSHYTLQLSSSSNYDNLNGWAKKENLKNYVVYETTRNGQPWYVLVSGVYASKEEAKKAVSTLPADVQAKNPWAKPLRQVQADLK

What was measured:
[1] = molecular target: T1, penicillin-binding protein 1A (PBP1A); test: cell-based or functional assay
[2] = molecular target: T2, penicillin-binding protein 1B (PBP1B); test: cell-based or functional assay

Row | Binder | GTase rate of PBP1A (consumption of fluorescent dansyl-lipid II), fold over PBP1A alone; 0.5 uM PBP1A, 2 uM purified DedD [1] | GTase rate of PBP1B (consumption of fluorescent dansyl-lipid II), fold over PBP1B alone; 0.5 uM PBP1B, 2 uM purified DedD [2] | GTase rate of PBP1B (consumption of fluorescent dansyl-lipid II), fold over PBP1B alone; 0.5 uM PBP1B, 2 uM purified DamX [2]
1 | B1 | 1.8 fold | 2.6 fold | 
2 | B2 |  |  | 2 fold
